The values that follow come from US20120148575A1.

Among the targets are muFcgRIIb; muFcgRIII; huFcRI; huFcgRIIb; huFcgRIIIA - 158V; muFcgRIV; muFcgRI.
Holding throughout (assay): SPR

A word on the Kd: it is the equilibrium constant for the complex coming apart. Higher therefore signals weaker binding.

muFcgRIV, sequence (A0A0B4J1G0 21-203): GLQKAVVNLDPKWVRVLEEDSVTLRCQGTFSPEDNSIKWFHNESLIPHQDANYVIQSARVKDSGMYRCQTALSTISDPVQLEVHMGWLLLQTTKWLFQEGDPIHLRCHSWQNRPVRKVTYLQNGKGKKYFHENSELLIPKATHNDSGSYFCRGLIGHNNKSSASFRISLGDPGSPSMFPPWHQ

In the case of Control, the Kd worked out at 1470 nM in the experiment with muFcgRIIb; 6360 nM with muFcgRIII; 19 nM with huFcRI; 14500 nM in the experiment with huFcgRIIb; 574 nM with huFcgRIIIA - 158V.

Turning to Hu IgG1, the Kd in the experiment with muFcgRIV came out at 253 nM; in the experiment with muFcgRIIb, 1240 nM; with muFcgRIII, 3660 nM.

For Hu IgG1 afuc, the Kd is 43 nM with muFcgRIV, 1260 nM with muFcgRIIb, 3960 nM in the experiment with muFcgRIII and 397 nM in the experiment with muFcgRI.
